From patent publication US20040181828A1 (E I DUPONT DE NEMOURS, published 2004)

Biological target: T1, ADGal4/rDr1 fusion protein (Gal4 activation domain fused to rice Dr1, encoded by pADGal4::rDr1) (rice)
T1 construct: Expressed in yeast YRG-2 for the two-hybrid assay; Coding region of rice Dr1 (EcoR I/Sma I fragment) fused in frame
T1 chain: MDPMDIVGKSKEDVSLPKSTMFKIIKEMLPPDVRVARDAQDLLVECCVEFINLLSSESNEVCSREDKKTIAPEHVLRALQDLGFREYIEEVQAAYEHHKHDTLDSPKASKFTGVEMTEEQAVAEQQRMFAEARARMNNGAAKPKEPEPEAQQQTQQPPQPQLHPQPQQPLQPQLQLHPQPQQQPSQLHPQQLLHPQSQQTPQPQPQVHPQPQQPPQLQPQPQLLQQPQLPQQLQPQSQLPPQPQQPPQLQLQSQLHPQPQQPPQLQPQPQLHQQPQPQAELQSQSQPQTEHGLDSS
Experiment: yeast two-hybrid (Gal4 system, YRG-2), growth on medium lacking Trp, Leu and His
From the text: USA 88: 9578-9582). The rice Dr1 and DRAP1 cDNAs described in Example 5 were fused with pAD-Gal4 and pBD-Gal4 to generate pADGal4::rDr1 and pBDGal4::rDRAP1 constructs respectively. The EcoR I and Sma I fragment containing coding region of rice Dr1 was cloned into pAD-Gal4 EcoR I and Sma I sites to generate pADGal4::rDr1. The Mfe I and Pst I fragment containing coding region of rice DRAP1 was cloned into pBD-Gal4 EcoR I and Pst I sites to generate pBDGal4::rDRAP1. The pADGal4::rDr1 and pBDGal4::rDRAP1 were transformed independently and co-transformed into Stratagene's YRG-2 yeast strain (Stratagene, San Diego, Calif.). Competent YRG-2 cells were prepared according to the method of Eible (1992) Biotechniques 13:18-20) and transformed with one microgram of DNA added to a […] aliquot of competent yeast cells. A mixture containing 240 PI 50% PEG (MW 3350), 36 μl 1 M lithium acetate, and 50 μg of salmon sperm DNA was added to the yeast-DNA mixture. After mixing the mixture was incubated at 30° C. for 30 minutes and heat shocked at 42° C. for 20 minutes. Maximum of 200 μl of transformation mixture was plated on selective plates. For initial plating transformants containing the pADGal4::rDr1 construct (trp+), were plated on selection medium lacking tryptophan. […]

B1: Truncated rice DRAP1 (N-terminal deletion of 63 amino acids) fused to Gal4 DNA binding domain, encoded by pBDGal4::rDRAP1NN64 (other, not shown: large carriers)
chain: SFHLKQCVRRYSSFDFLTEVVNKVPDLGGADSCGDDRALPRRRKALPNGSDPENEESRSSKMAVRSANISPRGRGRGRGRGRGRPPTKRKEVGYVQFEDESSMFADQGEALPGEETVPETIHGTESVPPSTHPPAEAPSAAEIPAPNPKVEEAKNDDHQPDWPMPDAIGNIGVGPSGFGHLTVQVDEDEDYDNED
notes: Lacks the N-terminal 63 amino acids of rice DRAP1
B1: no binding.
